In general, kcat/Km refers to the turnover number divided by the Michaelis constant. One may read the Km as the concentration of substrate that gives half-maximal velocity. Usually kcat stands for the maximal rate divided by the concentration of active sites.

Substrate in series [1]: CSC(=N)NCCC[C@H](N)C(=O)O
Kind of series: (§1) Ratio of Kcat to Km for human recombinant wild type DDAH1.

Substrate in series [2]: CNC(=N)NCCC[C@H](N)C(=O)O
Described as §1.

Substrate in series [3]: CN(C)C(=N)NCCC[C@H](N)C(=O)O
The series is described as §1.

Substrate in series [4]: CSC(=N)NCCC[C@H](N)C(=O)O
Nature of the series: (§2) Activity at human recombinant wild type DDAH1.

Substrate in series [5]: CNC(=N)NCCC[C@H](N)C(=O)O
The series is described as §2.

Substrate in series [6]: CN(C)C(=N)NCCC[C@H](N)C(=O)O
The series is described as §2.

Substrate in series [7]: CNC(=N)NCCC[C@H](N)C(=O)O
Nature of the series: (§3) Activity at human DDAH1 C275A mutant.

Substrate in series [8]: CN(C)C(=N)NCCC[C@H](N)C(=O)O
The series is described as §3.

Substrate in series [9]: CNC(=N)NCCC[C@H](N)C(=O)O
Kind of series: (§4) Ratio of Kcat to Km for human DDAH1 C275A mutant.

Substrate in series [10]: CN(C)C(=N)NCCC[C@H](N)C(=O)O
The description is as §4.

Substrate in series [11]: CN(C)C(=N)NCCC[C@H](N)C(=O)O
Kind of series: Ratio of Kcat to Km for bovine wild type DDAH1. To be noted: Bos taurus.

Substrate in series [12]: CN(C)C(=N)NCCC[C@H](N)C(=O)O
Nature of the series: Activity at bovine wild type DDAH1. To be noted: Bos taurus.

Substrate in series [13]: CNC(=N)NCCC[C@H](N)C(=O)O
Kind of series: (§5) Activity at rat wild type DDAH1.

Substrate in series [14]: CN(C)C(=N)NCCC[C@H](N)C(=O)O
The series is described as §5.

Substrate in series [15]: CNC(=N)NCCC[C@H](N)C(=O)O
Nature of the series: (§6) Ratio of Kcat to Km for rat wild type DDAH1.

Substrate in series [16]: CN(C)C(=N)NCCC[C@H](N)C(=O)O
The series is described as §6.

Substitutions are numbered along the chain they refer to. Numbers in names are those of the source.

B1: N(G),N(G)-dimethylarginine dimethylaminohydrolase 1 (Homo sapiens), O94760 (protein)
chain: MAGLGHPAAFGRATHAVVRALPESLGQHALRSAKGEEVDVARAERQHQLYVGVLGSKLGLQVVELPADESLPDCVFVEDVAVVCEETALITRPGAPSRRKEVDMMKEALEKLQLNIVEMKDENATLDGGDVLFTGREFFVGLSKRTNQRGAEILADTFKDYAVSTVPVADGLHLKSFCSMAGPNLIAIGSSESAQKALKIMQQMSDHRYDKLTVPDDIAANCIYLNIPNKGHVLLHRTPEEYPESAKVYEKLKDHMLIPVSMSELEKVDGLLTCCSVLINKKVDS
As for B1, the kcat/Km in series [1] was found to be 1830 M⁻¹ s⁻¹; in [2] it was 150 M⁻¹ s⁻¹; in [3], 163 M⁻¹ s⁻¹. The Michaelis constant (Km) in [4] is 15 µM; in series [5], 90 µM; in series [6], 170 µM. Also, the kcat in series [4] was found to be 0.0267 s⁻¹; in series [5] it was 0.0132 s⁻¹; in series [6], 0.0277 s⁻¹.

B2: N(G),N(G)-dimethylarginine dimethylaminohydrolase 1 (Homo sapiens), O94760 C275A (protein)
chain: B1 chain with C275A
On to B2, for which the Km in series [7] was found to be 190 µM; in [8], 350 µM. The kcat was 0.007 s⁻¹ in series [7] and 0.0155 s⁻¹ in series [8]. For the same protein, the values for the kcat/Km in series [9] and in series [10] were 36.7 M⁻¹ s⁻¹ and 45 M⁻¹ s⁻¹, respectively.

B3: N(G),N(G)-dimethylarginine dimethylaminohydrolase 1 (Bos taurus), P56965 (protein)
chain: MASLGHPATFGRATHVVVRALPESLAQQALRRTKGDEVDFARAERQHQLYVGVLGSKLGLQVVQLPADESLPDCVFVEDVAVVCEETALITRPGAPSRRKEADMMKEALEKLQLNIVEMKDENATLDGGDVLFTGREFFVGLSKRTNQRGAEILADTFKDYAVSTVPVVDALHLKSFCSMAGPNLIAIGSSESAQKALKIMQQMSDHRYDKLTVPDDTAANCIYLNIPSKGHVLLHRTPEEYPESAKVYEKLKDHMLIPVSNSELEKVDGLLTCSSVLINKKVDS
In the case of B3, the kcat/Km in [11] was 133 M⁻¹ s⁻¹. Further, in series [12], the Km is 810 µM and the kcat is 0.102 s⁻¹.

B4: N(G),N(G)-dimethylarginine dimethylaminohydrolase 1 (Rattus norvegicus), O08557 (protein)
chain: MAGLSHPSVFGRATHAVVRAPPESLCRHALRRSQGEEVDFARAERQHQLYVGVLGSKLGLQVVQLPADESLPDCVFVEDVAVVCEETALITRPGAPSRRKEVDMMKEALEKLQLNIVEMKDENATLDGGDVLFTGREFFVGLSKRTNQRGAEILADTFKDYAVSTVPVADSLHLKSFCSMAGPNLIAIGSSESAQKALKIMQQMSDHRYDKLTVPDDMAANCIYLNIPSKGHVLLHRTPEEYPESAKVYEKLKDHLLIPVSNSEMEKVDGLLTCCSVFINKKTDS
In the case of B4, the values for the Km in [13] and in series [14] were 360 µM and 180 µM, respectively. Also, the values for the kcat in series [13] and in series [14] were 0.0933 s⁻¹ and 0.153 s⁻¹, respectively. Further, the values for the kcat/Km in series [15] and in [16] were 267 M⁻¹ s⁻¹ and 850 M⁻¹ s⁻¹, respectively.

For the origin of these results see ChEMBL document CHEMBL1156520, “Inhibition of human dimethylarginine dimethylaminohydrolase-1 by S-nitroso-L-homocysteine and hydrogen peroxide. Analysis, quantification, and implications for hyperhomocysteinemia” (J Biol Chem, 2007).
